Experiments:
[1] = target: monoclonal IgG antibody in clarified CHO cell supernatant; experiment: affinity chromatography, 3-column PCC, 1.5 g/L mAb feed, 45% breakthrough, 0.5 min residence time
[2] = target: monoclonal IgG antibody in clarified CHO cell supernatant; experiment: affinity chromatography, 3-column PCC, undiluted supernatant feed, 2.5 min residence time, column switch at 5% breakthrough

Work on “SpA variant ligands (tetramers of Zvar), covalently coupled via a C-terminal cysteine to crosslinked agarose beads (designed binder)” yielded a dynamic capacity [1] of 43 g/L and a dynamic binding capacity [2] of 54 g/L.

Reference: patent publication US20180243665A1
